Experimental data taken from the supplement of paper PMC7125110.
± gives the standard error. Fewer inactive variants are shown than the library holds.

B1: glmS ribozyme (parent)
chain: AUAAAAGCGCCAGAACUACAGAAAUGUAGUUGACGAGGAGGAGGUUUAUCGAAUUUUCGGCGGAUGCCUCCAAA

Assays:
Settings in all cases: with glucosamine-6-phosphate
glucosamine-6-phosphate [1] = variants of: B1; experiment: self-cleavage kobs at 40 uM GlcN6P; higher = faster cleavage; RNA array
Procedure, shortened: (§1)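 Ribozyme variants carrying barcodes were transcribed in situ on sequenced MiSeq chips by E. coli RNA polymerase and tracked at 37 °C with a hybridised Cy3 probe. They were exposed to 40 μM to 10 mM glucosamine-6-phosphate in HEPES/KCl/Mg(OAc)2 buffer. kobs came from exponential decay fits of normalised per-tile medians, and kcat and KM from weighted Michaelis–Menten fits.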

glucosamine-6-phosphate [2] = variants of: B1; experiment: self-cleavage kobs at 2500 uM GlcN6P; higher = faster cleavage; RNA array
Procedure, shortened: as §1

glucosamine-6-phosphate [3] = variants of: B1; experiment: self-cleavage kobs at 10000 uM GlcN6P; higher = faster cleavage; RNA array
Procedure, shortened: as §1

glucosamine-6-phosphate [4] = variants of: B1; experiment: self-cleavage kobs at 640 uM GlcN6P; higher = faster cleavage; RNA array
Procedure, shortened: as §1

glucosamine-6-phosphate [5] = variants of: B1; experiment: self-cleavage kobs at 160 uM GlcN6P; higher = faster cleavage; RNA array
Procedure, shortened: as §1

G43A G66U
self-cleavage kobs at 40 uM GlcN6P (glucosamine-6-phosphate [1]): < 1e-05 s⁻¹
self-cleavage kobs at 2500 uM GlcN6P (glucosamine-6-phosphate [2]): < 1e-05 s⁻¹

U57G G62A
self-cleavage kobs at 40 uM GlcN6P (glucosamine-6-phosphate [1]): < 1e-05 s⁻¹
self-cleavage kobs at 10000 uM GlcN6P (glucosamine-6-phosphate [3]): < 1e-05 s⁻¹

C8U G44C A52U C61A
self-cleavage kobs at 40 uM GlcN6P (glucosamine-6-phosphate [1]): < 1e-05 s⁻¹
self-cleavage kobs at 2500 uM GlcN6P (glucosamine-6-phosphate [2]): < 1e-05 s⁻¹
self-cleavage kobs at 10000 uM GlcN6P (glucosamine-6-phosphate [3]): < 1e-05 s⁻¹

G38C C58U
self-cleavage kobs at 40 uM GlcN6P (glucosamine-6-phosphate [1]): < 1e-05 s⁻¹
self-cleavage kobs at 640 uM GlcN6P (glucosamine-6-phosphate [4]): < 1e-05 s⁻¹
self-cleavage kobs at 2500 uM GlcN6P (glucosamine-6-phosphate [2]): < 1e-05 s⁻¹
self-cleavage kobs at 10000 uM GlcN6P (glucosamine-6-phosphate [3]): < 1e-05 s⁻¹

G40U G44A
self-cleavage kobs at 40 uM GlcN6P (glucosamine-6-phosphate [1]): < 1e-05 s⁻¹
self-cleavage kobs at 160 uM GlcN6P (glucosamine-6-phosphate [5]): < 1e-05 s⁻¹
self-cleavage kobs at 10000 uM GlcN6P (glucosamine-6-phosphate [3]): < 1e-05 s⁻¹

C10U G37A G44A U57C
self-cleavage kobs at 40 uM GlcN6P (glucosamine-6-phosphate [1]): < 1e-05 s⁻¹

G7A C50G
self-cleavage kobs at 40 uM GlcN6P (glucosamine-6-phosphate [1]): 4.24e-05 ± 1.5e-05 s⁻¹
self-cleavage kobs at 160 uM GlcN6P (glucosamine-6-phosphate [5]): 6.67e-05 ± 2e-05 s⁻¹

G13A G37C
self-cleavage kobs at 40 uM GlcN6P (glucosamine-6-phosphate [1]): < 1e-05 s⁻¹
self-cleavage kobs at 160 uM GlcN6P (glucosamine-6-phosphate [5]): < 1e-05 s⁻¹
self-cleavage kobs at 640 uM GlcN6P (glucosamine-6-phosphate [4]): < 1e-05 s⁻¹
self-cleavage kobs at 2500 uM GlcN6P (glucosamine-6-phosphate [2]): < 1e-05 s⁻¹
self-cleavage kobs at 10000 uM GlcN6P (glucosamine-6-phosphate [3]): < 1e-05 s⁻¹

C10U G43U U57G
self-cleavage kobs at 40 uM GlcN6P (glucosamine-6-phosphate [1]): < 1e-05 s⁻¹
self-cleavage kobs at 10000 uM GlcN6P (glucosamine-6-phosphate [3]): < 1e-05 s⁻¹

A33C G41A A42C G63C C67U
self-cleavage kobs at 40 uM GlcN6P (glucosamine-6-phosphate [1]): < 1e-05 s⁻¹
self-cleavage kobs at 2500 uM GlcN6P (glucosamine-6-phosphate [2]): < 1e-05 s⁻¹
self-cleavage kobs at 10000 uM GlcN6P (glucosamine-6-phosphate [3]): < 1e-05 s⁻¹

C16G G29U U46G
self-cleavage kobs at 40 uM GlcN6P (glucosamine-6-phosphate [1]): 4.6e-05 ± 1.8e-05 s⁻¹
self-cleavage kobs at 10000 uM GlcN6P (glucosamine-6-phosphate [3]): 0.00136 ± 0.00039 s⁻¹

U47C C61U
self-cleavage kobs at 40 uM GlcN6P (glucosamine-6-phosphate [1]): < 1e-05 s⁻¹
self-cleavage kobs at 160 uM GlcN6P (glucosamine-6-phosphate [5]): < 1e-05 s⁻¹
self-cleavage kobs at 640 uM GlcN6P (glucosamine-6-phosphate [4]): < 1e-05 s⁻¹
self-cleavage kobs at 2500 uM GlcN6P (glucosamine-6-phosphate [2]): < 1e-05 s⁻¹
self-cleavage kobs at 10000 uM GlcN6P (glucosamine-6-phosphate [3]): < 1e-05 s⁻¹

G13C U30G U54G G63U C67U
self-cleavage kobs at 40 uM GlcN6P (glucosamine-6-phosphate [1]): < 1e-05 s⁻¹
self-cleavage kobs at 10000 uM GlcN6P (glucosamine-6-phosphate [3]): < 1e-05 s⁻¹

C8A U47C C58G G66U
self-cleavage kobs at 40 uM GlcN6P (glucosamine-6-phosphate [1]): < 1e-05 s⁻¹
self-cleavage kobs at 2500 uM GlcN6P (glucosamine-6-phosphate [2]): < 1e-05 s⁻¹
self-cleavage kobs at 10000 uM GlcN6P (glucosamine-6-phosphate [3]): < 1e-05 s⁻¹

C34G G35C
self-cleavage kobs at 40 uM GlcN6P (glucosamine-6-phosphate [1]): < 1e-05 s⁻¹

G35C C50A
self-cleavage kobs at 40 uM GlcN6P (glucosamine-6-phosphate [1]): < 1e-05 s⁻¹
self-cleavage kobs at 160 uM GlcN6P (glucosamine-6-phosphate [5]): < 1e-05 s⁻¹
self-cleavage kobs at 640 uM GlcN6P (glucosamine-6-phosphate [4]): < 1e-05 s⁻¹
self-cleavage kobs at 2500 uM GlcN6P (glucosamine-6-phosphate [2]): < 1e-05 s⁻¹
self-cleavage kobs at 10000 uM GlcN6P (glucosamine-6-phosphate [3]): < 1e-05 s⁻¹

C10A G38C G60U C71U
self-cleavage kobs at 40 uM GlcN6P (glucosamine-6-phosphate [1]): < 1e-05 s⁻¹

G44C U65C
self-cleavage kobs at 40 uM GlcN6P (glucosamine-6-phosphate [1]): < 1e-05 s⁻¹
self-cleavage kobs at 160 uM GlcN6P (glucosamine-6-phosphate [5]): < 1e-05 s⁻¹
self-cleavage kobs at 640 uM GlcN6P (glucosamine-6-phosphate [4]): < 1e-05 s⁻¹
self-cleavage kobs at 10000 uM GlcN6P (glucosamine-6-phosphate [3]): < 1e-05 s⁻¹

A6G U31A U46G C68G
self-cleavage kobs at 40 uM GlcN6P (glucosamine-6-phosphate [1]): < 1e-05 s⁻¹
self-cleavage kobs at 10000 uM GlcN6P (glucosamine-6-phosphate [3]): < 1e-05 s⁻¹

G7A A52U G63C
self-cleavage kobs at 40 uM GlcN6P (glucosamine-6-phosphate [1]): < 1e-05 s⁻¹
self-cleavage kobs at 160 uM GlcN6P (glucosamine-6-phosphate [5]): < 1e-05 s⁻¹
self-cleavage kobs at 640 uM GlcN6P (glucosamine-6-phosphate [4]): < 1e-05 s⁻¹
self-cleavage kobs at 2500 uM GlcN6P (glucosamine-6-phosphate [2]): < 1e-05 s⁻¹

G7A U55C
self-cleavage kobs at 40 uM GlcN6P (glucosamine-6-phosphate [1]): < 1e-05 s⁻¹
self-cleavage kobs at 160 uM GlcN6P (glucosamine-6-phosphate [5]): < 1e-05 s⁻¹
self-cleavage kobs at 640 uM GlcN6P (glucosamine-6-phosphate [4]): < 1e-05 s⁻¹

C11G G66U
self-cleavage kobs at 40 uM GlcN6P (glucosamine-6-phosphate [1]): < 1e-05 s⁻¹
self-cleavage kobs at 2500 uM GlcN6P (glucosamine-6-phosphate [2]): < 1e-05 s⁻¹

A53U U54A C68U
self-cleavage kobs at 40 uM GlcN6P (glucosamine-6-phosphate [1]): 0.00036 ± 9.6e-05 s⁻¹
self-cleavage kobs at 10000 uM GlcN6P (glucosamine-6-phosphate [3]): 0.013 ± 0.0042 s⁻¹

A6G C10U G43C
self-cleavage kobs at 40 uM GlcN6P (glucosamine-6-phosphate [1]): < 1e-05 s⁻¹
self-cleavage kobs at 640 uM GlcN6P (glucosamine-6-phosphate [4]): < 1e-05 s⁻¹
